# According to doi:10.1101/721969:
# Target: Ib-pore (heptameric translocation channel of Clostridium perfringens iota toxin component Ib, after (Clostridium perfringens))
# Assay: cryo-EM structure
substance,measurement,value
"Ib-pore (heptameric translocation channel of Clostridium perfringens iota toxin component Ib, after (natural protein)",stoichiometry N,7
